The results in this text go back to paper PMC12820099, “CTCF couples long-range loop extrusion and diffusion to mediate a diverse Igκ repertoire” (Nature Communications, 2025).

The assay has as its target T1, SMC3 (mouse (endogenous in v-Abl pro-B cells), UniProt Q9CW03 1-1217).
T1 construct: SMC3, mouse, endogenous; precipitated with an SMC3 antibody from the solubilised chromatin fraction; Bait of the IP; it sits in the cohesin complex, so partners may touch other cohesin subunits rather than SMC3 itself; also called cohesin (SMC3 immunoprecipitate); source: endogenous, chromatin fraction of G1 arrested v-Abl pro-B cells (WT and CTCF-Nm)
Nature of the assay: affinity purification with mass spectrometry; SMC3 antibody IP (Protein A beads, overnight, 100 mM NaCl) from Benzonase-solubilised chromatin fraction of G1 arrested WT and CTCF-Nm v-Abl pro-B cells; label-free qMS, protein intensities normalised to chromatin-bound SMC3; IgG isotype control. To be noted: partners not purified.

T1 sequence (Q9CW03 whole entry): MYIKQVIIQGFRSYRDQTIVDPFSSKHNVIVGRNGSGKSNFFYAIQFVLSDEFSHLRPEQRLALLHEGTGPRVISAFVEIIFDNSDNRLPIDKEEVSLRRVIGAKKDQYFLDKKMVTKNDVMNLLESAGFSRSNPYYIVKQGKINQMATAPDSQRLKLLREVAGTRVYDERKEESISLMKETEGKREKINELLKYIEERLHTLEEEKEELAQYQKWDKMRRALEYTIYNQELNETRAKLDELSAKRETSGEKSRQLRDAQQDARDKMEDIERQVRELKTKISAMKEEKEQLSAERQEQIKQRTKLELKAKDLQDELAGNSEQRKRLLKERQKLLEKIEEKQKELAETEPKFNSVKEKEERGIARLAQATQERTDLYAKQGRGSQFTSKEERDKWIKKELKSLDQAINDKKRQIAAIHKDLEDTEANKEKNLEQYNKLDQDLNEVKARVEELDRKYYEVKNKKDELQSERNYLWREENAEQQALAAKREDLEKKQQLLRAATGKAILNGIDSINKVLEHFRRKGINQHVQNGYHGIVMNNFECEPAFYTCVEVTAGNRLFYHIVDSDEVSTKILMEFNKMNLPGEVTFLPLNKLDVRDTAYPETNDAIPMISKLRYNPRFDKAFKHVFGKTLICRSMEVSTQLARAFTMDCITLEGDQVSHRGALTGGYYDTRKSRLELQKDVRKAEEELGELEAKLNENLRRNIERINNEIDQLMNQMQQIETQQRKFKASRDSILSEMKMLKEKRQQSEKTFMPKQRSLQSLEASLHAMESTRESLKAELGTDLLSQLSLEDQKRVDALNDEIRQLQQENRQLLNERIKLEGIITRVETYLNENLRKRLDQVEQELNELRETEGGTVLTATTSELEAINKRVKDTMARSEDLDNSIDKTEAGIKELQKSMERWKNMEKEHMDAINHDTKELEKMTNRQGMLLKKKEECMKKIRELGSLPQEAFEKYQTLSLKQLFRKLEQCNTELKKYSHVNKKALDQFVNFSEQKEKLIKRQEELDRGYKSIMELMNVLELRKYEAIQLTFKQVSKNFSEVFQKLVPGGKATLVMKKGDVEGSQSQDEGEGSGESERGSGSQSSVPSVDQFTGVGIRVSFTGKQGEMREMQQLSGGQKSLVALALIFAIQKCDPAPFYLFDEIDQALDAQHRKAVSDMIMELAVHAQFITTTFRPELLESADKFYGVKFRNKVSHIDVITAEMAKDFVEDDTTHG

B1: WAPL (natural protein, mouse (endogenous in v-Abl pro-B cells), UniProt Q65Z40 1-1200, looked up)
chain: MTSRFGKTYSRKGGNGSSKFDEVFSNKRTTLSTKWGETTFMAKLGQKRPNFKPDIQEIPKKPKVEEEDTGDPFGFDSDDESLPVSSKNLAQGKGSSYSESSEAAQLEEVTSVFEANSKCSHVVGEDSFASDRCLLVEDTLIGKEKSISRIPEDNANKSSCTKLLTSDKVENFSEEHEKNSHHFHKNAEDSTKKPNAETAVASEYKADETKETNDTWNSQSGKRTESPSESCPVKGSVRTGLYEWDNDFEDIRSEDCILSLDNESLLEMKDEDLKNRIGGLENLNETFEEDIIQSVLRPSNCRTYCRANKARSSQGASNFDKLMDGTSQSLAKANSESSKDGLNQAKKGSASCGTSFRGTVGRTRDYTVLHPSCLSVCNVTIQDTMERSMDEFTASTPADLGEAGRLRKKADIATSKTTTRFRPSNTKSKKDVKLEFFGFEDHDETGGDEGGSGSSNYKIKYFGFDDLSESEDDDDDDCQVERKKDKKRTKTAPSPSQQPPPESSDNSQDSQSSTNNAENLDFTEDLPGVPESVKKPISKQGDKSKENTRKIFSGPKRSPTKAVYNARHWNHPDSEELPGPPIAKPQRVTVRLSSKEPNQKDDGVFKAPAPPLKVIKTVTIPTQPYQEIVTALKCRKEDKELYTVVQHVKHFNDVVEFGENQEFTDDIEYLLSGLKSTQPLNTRCLSVISLATKCAMPSFRMHLRAHGMVAMVFKTLDDSQHHQNLSLCTAALMYILSRDRLNMDLDRASLDLMIRLLELEQDASSAKLLNEKDMNKIKEKIRRLCETVHNKHLDLENITTGHLAMETLLSLTSKRAGDWFKEELRLLGGLDHIVDKVKECVDHLSRDDEDEEKLVASLWGAERCLRVLESVTVHNPENQSYLIAYKDSQLIISSAKALQHCEDLIQQYNRAENSICVADSNPLPYQNVTNHVGKAVEDCMRAIIGVLLNLTNDNEWGSTKTGEQEGLIGTAMNCVLQVPKYLPQEQRFDIRVLGLGLLINLVEYSARNRHCLVNMQTSCSFDSSFSSGEGDHSLRLAGQVHAVQALVQLFLERERAAQLAESKTDELIKDAPTTQHDKSGEWQETSGEIQWVSTEKTDGAEEKQKKEEEDEELDLNKALQHAGKHMEDCIVASYTALLLGCLCQESPINVTTVREYLPEGDFSIMTEMLKKFLSFMNLTCAVGTTGQKSISRVIEYLEHC
notes: WAPL, mouse, endogenous, untagged in the WT and CTCF-Nm lines used for the IP; source: endogenous, chromatin fraction of G1 arrested v-Abl pro-B cells (WT and CTCF-Nm)
B1: the “fold increase of the interaction in CTCF-Nm cells against WT cells” value was 1.9 fold.

B2: CTCF(Y226A/F228A) (natural protein, mouse (endogenous in v-Abl pro-B cells), UniProt Q61164 1-736, looked up)
chain: MEGEAVEAIVEESETFIKGKERKTYQRRREGGQEEDACHLPQNQTDGGEVVQDVNSSVQMVMMEQLDPTLLQMKTEVMEGTVAPEAEAAVDDTQIITLQVVNMEEQPINIGELQLVQVPVPVTVPVATTSVEELQGAYENEVSKEGLAESEPMICHTLPLPEGFQVVKVGANGEVETLEQGELPPQEDSSWQKDPDYQPPAKKTKKTKKSKLRYTEEGKDVDVSVADAEEEQQEGLLSEVNAEKVVGNMKPPKPTKIKKKGVKKTFQCELCSYTCPRRSNLDRHMKSHTDERPHKCHLCGRAFRTVTLLRNHLNTHTGTRPHKCPDCDMAFVTSGELVRHRRYKHTHEKPFKCSMCDYASVEVSKLKRHIRSHTGERPFQCSLCSYASRDTYKLKRHMRTHSGEKPYECYICHARFTQSGTMKMHILQKHTENVAKFHCPHCDTVIARKSDLGVHLRKQHSYIEQGKKCRYCDAVFHERYALIQHQKSHKNEKRFKCDQCDYACRQERHMIMHKRTHTGEKPYACSHCDKTFRQKQLLDMHFKRYHDPNFVPAAFVCSKCGKTFTRRNTMARHADNCAGPDGVEGENGGETKKSKRGRKRKMRSKKEDSSDSEENAEPDLDDNEEEEEPAVEIEPEPEPQPQPPPPPQPVAPAPPPAKKRRGRPPGRTNQPKQNQPTAIIQVEDQNTGAIENIIVEVKKEPDAEPAEGEEEEAQAATTDAPNGDLTPEMILSMMDR
notes: CTCF, mouse, endogenous, with the Y226A/F228A mutation of the N-terminal YDF motif; also called CTCF-Nm; source: endogenous locus, homozygous CRISPR/Cas9 knock-in, chromatin fraction of G1 arrested CTCF-Nm v-Abl pro-B cells
In the case of B2, the “fold reduction of the interaction against WT CTCF” value was found to be 3 fold.
